The text below walks through data of US20240262892A1 (NANJING VAZYME BIOTECH, published 2024).

For assay [1], the target named is T1, SARS-CoV-2 S1 (S1 subunit of spike protein of SARS-CoV-2) (SARS-CoV-2, UniProt P0DTC2 14-685).
T1 construct: domain: S1; also called SARS-CoV-2 Spike protein S1 domain
In words: ELISA, SARS-CoV-2 S1 coated on the plate, anti-human IgG-HRP, OD450. In general terms: In an ELISA, binding on a coated surface is turned into a signal by an enzyme label.

Assay [2] addresses T2, SARS-CoV-2 RBD (receptor binding domain of spike protein of SARS-CoV-2) (SARS-CoV-2, UniProt P0DTC2 319-541). In words: ELISA, S1-RBD coated on the plate, antibody at one concentration, anti-human IgG-HRP.
The target of assay [3] is T3, SARS-CoV-2 S1 protein NTD (N-terminal domain of spike protein of SARS-CoV-2) (SARS-CoV-2, UniProt P0DTC2 14-305).
T3 construct: also called S1-NTD; NTD of S1 subunit
In words: ELISA, S1-NTD coated on the plate, antibody at one concentration, anti-human IgG-HRP.

Assay [4] concerns the target T3, SARS-CoV-2 S1 protein NTD (N-terminal …). Nature of the assay: biolayer interferometry, ForteBio Octet RED96e, NTD 250 nM to 7.81 nM, 1:1 model. For orientation: In BLI a coated tip is dipped into the sample, and binding shifts an interference pattern.
Assay [5] addresses T2, SARS-CoV-2 RBD (receptor binding domain …). Nature of the assay: HTRF ACE2/RBD binding assay (665/620 ratio); blocked ligand: ACE2. A general note: In TR-FRET formats the signal depends on donor and acceptor labels being close together.
For assay [6] the target is unchanged. Nature of the assay: ELISA, SARS-CoV-2 RBD coated on the plate, anti-human IgG-HRP, OD450.
For assay [7] the target is unchanged.
Assay [8] has the same target. This is another data set of the same source.
For assay [9] the target is unchanged. Nature of the assay: HTRF ACE2/RBD binding assay, competition with ACE2.

Where two headings read alike, the source gives them in different places.

B1: Antibody 14-8 (antibody, V domains shown)
VH: QVQLVQSGAEVKKPGASVKVSCKASGYTFTGYYIHWVRQAPGKGPEWMGWINPNSGGTNYAQKFQGWVTMTRDTSISAAYMELSRLKFDDTAIYYCAKSGEKVGADLGYYDYGMDLWGQGTTVTVSS
VL: SYELTQPPSVSVSPGQTARITCSGDALPKQYAYWYQQKPGQAPVMVIYKDTERPSGIPERFSGSSSGTTVTLTISGVQAEDEADYNCQSVDSSGAYVVFGGGTKLTVL
In general, EC50 (read off the curve) refers to the midpoint of the concentration-response curve. Read a low EC50 (read off the curve) as greater potency. A word on the Kd: it is the concentration at which binding is half-saturated. A higher Kd goes with weaker binding. For the molecule B1, the “EC50 (read off the curve)” value in assay [1] is around 0.1 µg/mL. Besides, the values for the OD450 in assay [2] and in [3] were 0.0693 and 3.98, respectively. In [4], this molecule showed a Kd of 7.08 nM.

B2: Antibody 12-9 (antibody, V domains shown)
VH: EVQLVESGGGLVKPGGSLRLSCAASEFTFSSYSMNWVRQAPGKGLEWVSSISSSGSDIYYADSVKGRFTISRDNAKKSLYLQMNSLRVEDTAVYYCATNGGAHSSTWSFYGMDVWGQGTTVTVSS
VL: SYELTQPPSVSVSPGQTATITCSGDKLGDKYACWYQQRPGQSPVLVIYQDSKRPSGIPERFSGSNSGNTATLTIGGTQAMDEAAYFCQAWDSNTGVFGGGTKLTVL
With B2, in [1], the “EC50 (read off the curve)” value is around 0.03 µg/mL. Moreover, the OD450 stood at 0.0764 in [2] and 3.76 in assay [3]. The same molecule gave a Kd in [4] of 16.7 nM.

B3: Antibody 12-17 (antibody, V domains shown)
VH: EVQLVESGGGLVKPGGSLRLSCAASGFTLNSYSMNWVRQAPGKGLEWVSSISSTSSDIYYADSVKGRFTISRDNAKNSVDLQMNSLRAEDTAVYYCATNGGAHRNTWSFYGMDVWGQGTTVTVSS
VL: SYELTQPPSVSVSPGQTASITCSGDKLGDKYASWYQQKPGQSPVLVIYQDTKRPSGIPERFSGSNSGNTVTLTISGTQAMDEADYYCQAWDSSTGVFGGGTKLTVL
As to B3, the “EC50 (read off the curve)” value in assay [1] is around 0.04 µg/mL. Further, the values for the OD450 in [2] and in assay [3] were 0.0641 and 3.95, respectively. Also, the Kd in [4] came out at 5.49 nM.

B4: Antibody 29-2 (antibody, V domains shown)
VH: QITLKESGPTLVKPTQTLTLTCTFSGFSLSSSGMGVGWIRQPPGKALEWLALIYWNDDKRYSPSLKSRLTITKDTSKNQVVLTLTNMDPVDTATYYCAHTTLYNNCPFDYWGQGTLVTVSS
VL: SYVLTQPPSVSVAPGKTARITCGGNNIGSYSVHWYQQRPGQAPVLVIYYDSDRPSGIPERFSGSNSGNTATLTISRVEAGDEADYYCQVWDNSSNHPWVFGGGTKLTVL
The IC50 is the midpoint of a concentration-inhibition curve. One may read the EC50 as the concentration that produces a half-maximal response. For the molecule B4, the IC50 in [5] turned out to be 0.117 µg/mL. In addition, the EC50 in [6] was determined as 0.0372 µg/mL. Moreover, binding in assay [7] was characterised by a dissociation constant (Kd) of 0.392 nM.

B5: Antibody 5-10 (antibody, V domains shown)
VH: EVQLLESGGGLVQPGGSLRLSCAASGFTFSSYAMSWVRQAPGKGLEWVSAIVGSGGSTYYADSVKGRFIISRDNSKNTLYLQMNSLRAEDTAVYYCAKSLIYGHYDILTGAYYFDYWGQGTLVTVSS
VL: DIQMTQSPSSVSASVGDRVTIPCRASQGIGNWLAWYQQKPGKAPKLLIYAASSLQSGVPSRFSGSGSGTDFTLTISSLQPEDFATYYCQQANSFPPFGQGTRLEIK
In [6], B5 gave an EC50 of 0.0269 µg/mL. The same molecule gave a dissociation constant (Kd) in assay [7] of 4.32 nM.

B6: Antibody 12-11 (antibody, V domains shown)
VH: QVQVVQSGAEVKKPGASVKVSCKVSGYTLIEISIHWVRQAPGKGLEWMGGFDPEAGETIYAQKFQGRVTMTEDTSTDTAYMEVSSLRSEDTAVYYCATGPAIAAAETNWFDLWGQGTLVTVSS
VL: QSALTQPASVSGSPGQSITISCTGTSSDVGSYNYVSWYQQHPGKAPKLMIYDVTKRPSGVPDRFSGSKSGNTASLTISGLQAEDEADYYCSSYTSSSTWVFGGGTKLTVL
With B6, the “EC50 (read off the curve)” value in [1] was around 0.1 µg/mL. In addition, the OD450 came out at 0.0638 in assay [2] and 3.93 in assay [3]. Besides, the Kd in [4] came to 5.82 nM.

B7: Antibody 12-13 (antibody, V domains shown)
VH: QVQVVQSGAEVKKPGASVKVSCKVSGYTLTELSIHWVRQTPGKGLEWMGGFDPEDGETIYAQWLQGRVTMTEDTSTDIAYMELSSLRHEDTAVYYCATGPAIAGAGTNWFDPRGQGTLVIVSS
VL: QSALTQPASVSGSPGQSITISCTGTSSDVGGYNYVSWYQQHPGKAPKLMIYDVSKRPSGVPDRFSGSKSGNTASLTISGLQAEDEADYYCTSYTNSSTWVFGGGTKLTVL
For the molecule B7, in assay [1], the “EC50 (read off the curve)” value is around 0.07 µg/mL. For the same molecule, the results for the OD450 in assay [2] and in assay [3] were 0.06 and 3.96, respectively. Besides, the Kd in [4] is 5.61 nM.

B8: Antibody 9-1 (antibody, V domains shown)
VH: QLQLQESGPGLVKPSETLSLTCTVSGGSISSSTYYWAWIRQPPGKGLEWIGSIYYSGSTYYNPSLKSRVTISVHTSKNQFSLKLTSVTAADTAVYYCARSMGLHDYWGQGTLVTVSS
VL: DIQMTQSPSSLSASVGDRVTITCRASQGIGNSLAWYQQKPGRAPKFLLYAASTLESGVPSRFSGSGSGTHFTLTISSLQPEDFATYFCQQYYSTPPYTFGQGTRLEIK
As for B8, in assay [5], the IC50 is 0.105 µg/mL. In addition, in [6], the midpoint of the response, the EC50, lay at 0.0886 µg/mL. Besides, the Kd in assay [7] worked out at 0.835 nM.

B9: Antibody 29-13 (antibody, V domains shown)
VH: QITLKESGPTLVKPTQTLTLTCTFSGFSLSTSGVGVGWIRQPPGKALEWLALIYWDDDKRYSPSLKSRLSITKDTSKNQVALTVTNMDPVDTATYYCAHRRPGPGSYYFDYWGQGTLVTVSS
VL: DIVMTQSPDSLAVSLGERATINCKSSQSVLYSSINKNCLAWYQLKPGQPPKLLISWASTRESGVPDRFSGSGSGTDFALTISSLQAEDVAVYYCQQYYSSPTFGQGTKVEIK
As for B9, in [5], the IC50 turned out to be 0.0954 µg/mL. For the same molecule, it took 0.00473 µg/mL to reach a half-maximal effect in assay [6] (EC50). In assay [7], this molecule gave a Kd of 1.28 nM.

B10: Antibody 14-4 (antibody, V domains shown)
VH: QMQLVQSGPEVKKPGTSVKVSCKASGFTFTTSAVQWVRQARGQRLEWIGWIVVGSGNTNYAQKFQERVTITRDMSTSTGYMELSSLRSEDTAVYYCAAPNCNRTSCDDGFDIWGQGTMVTVSS
VL: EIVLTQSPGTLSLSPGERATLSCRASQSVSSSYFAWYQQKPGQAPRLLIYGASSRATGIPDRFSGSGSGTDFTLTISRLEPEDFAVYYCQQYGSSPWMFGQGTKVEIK
As for B10, the IC50 in assay [5] was 0.103 µg/mL. Further, the response in assay [6] was half-maximal at 0.0162 µg/mL (EC50). The Kd in [7] was 2.62 nM.

B11: Antibody 8-1 (antibody, V domains shown)
VH: EVQLVESGGGLIQPGGSLRLSCAASGLTVSSNYMTWVRQAPGKGLEWVSVIYSGGSTFYAESVKGRFTISRDNSKNTLYLQMNSLRAEDTAVYYCARDLVVYGMDVWGQGTTVIVSS
VL: DIQLTQSPSFLSASVGDRVTITCRASQGISSDLAWYQQKPGKAPKLLIYAASTLQSGVPSRFSGSGSGTEFTLTISSLQPEDFATYYCQQLNSHPLAFGPGTKVDIK
As to B11, the IC50 in [5] stood at 0.103 µg/mL. Also, the EC50 in [6] stood at 0.0506 µg/mL. This molecule also came in with a Kd in assay [8] of 0.047 nM.

B12: Antibody 34-2 (antibody, V domains shown)
VH: EVQLVESGGGLVQPGRSLRLSCAASGFTFDESAMHWVRQAPGEGLEWVSGISWNSGRIAYADSVRGRFTISRDNAKNSLYLQMNSLRAEDTALYFCALTTSGWFSFDYWGQGTLVTVSS
VL: SYVLTQPPSVSVAPGKTARITCGGNNIGSKSVHWYQQKPGQAPVPVIYYDSDRPSGIPERFSGSNSGNTATLTISRVEVGDEADYYCQVWDSSSDRAVFGGGTTLTVL
Regarding B12, in assay [5], the IC50 worked out at 0.115 µg/mL. In assay [6], this molecule showed an EC50 of 0.0493 µg/mL. In assay [7], this molecule came in with a Kd of 0.217 nM.

B13: Antibody 8-3 (antibody, V domains shown)
VH: EVQLVESGGGLVQPGGSLRLSCAASGITVSSNYMNWVRQAPGKGLDWVSVIYSGGSTFYADSVKGRFIISRDNSKNTLFLQMDSLRVEDTAVYYCARDLVVRGVDIWGQGTMVTVSS
VL: DIQLTQSPSFLSASVGDRVTITCRASQGISSDLAWYHQKPGKAPKLLIYAASTLQSGVPSRFSGSGSGTEFTLTISSLQPEDFATYYCQQLNSYRGLIFGGGTKVEIK
As for B13, in [5], the IC50 was 0.109 µg/mL. Also, the EC50 in assay [6] was 0.0483 µg/mL. Moreover, the Kd in [7] was found to be 1.55 nM.

B14: Antibody 9-8 (antibody, V domains shown)
VH: EVQLVESGGGVVQPGGSLRLSCAASGFTFDDYAIHWVRQAPGKGLEWVSLISGDGGTTYYADFVKGRFTISRDNSKNSLYLQMNSLRTEDTALYYCAKDIPVCSSTICYRFTARLHGMDVWGQGTTVTVSS
VL: DIQMTQSPSSLSASVGDRVTITCRASQSISSYLNWYQQKPGKAPKLLIYTASSLQSGVPSRFSGSGSGADFTLTISSLQPEDFATYYCQQRYSTPLTFGGGTKVEIK
For the molecule B14, a half-maximal effect in assay [6] (EC50) was put at 0.0243 µg/mL. This molecule displayed a Kd in [7] of 4.75 nM. The IC50 in assay [9] was found to be 4.14 µg/mL.

B15: Antibody 13-17 (antibody, V domains shown)
VH: QDQLVQSGAEVKKPGASVKVSCKVSGYTLPELSLHWVRQPPGKGLEWMGGFDPEDGETIYAQKFQGRVTMTEDTSTDTAYMELSSLRSEDTAVYYCAASTPMGGHTDWLDPWGQGTLVTVSS
VL: QSVLTQPPSVSAAPGQKVTISCSGSSSNIGNNYVSWYQQLPGTAPKLLIYDNNKRPSGIPDRFSGSKSGTSATLGITGLQTGDEADYYCGTWDSSLSAGVFGGGTKLTVL
B15: the half-maximal effective concentration (EC50 (read off the curve)) in [1] was around 0.1 µg/mL. The OD450 stood at 0.0815 in [2] and 3.91 in [3]. Moreover, binding in assay [4] was put at a Kd of 4.39 nM.
